We go through 84 variants from the RNAGym collection of RNA variant scans (doi:10.1073/pnas.2313332121).

B1: TPR t1 (parent)
chain: GACCAAUCUGCCCUCAGAGCUCGAGAACAUCUUCGGAUGCAGAGGAGGCAGGCUUCGGUGGCGCGAUAGCGCCAACGUCCUCAACCUCCAAUGCAUCCCACCACAUGAUGAUGCCUGAAGAGCCUUGGUUUUUUG

Variants of B1 are the subject of the series. The series can be described thus: polymerase ribozyme fitness, log enrichment relative to wild type (log ratio); higher = more active; in vitro selection for triplet polymerase activity. The method in brief: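 Libraries of mutants in each subunit of a heterodimeric triplet polymerase ribozyme were generated by PCR and transcribed. In triplicate, each went through one in vitro selection round: annealing with biotinylated primer, partner subunit and triplets; frozen incubation at −7 °C; gel excision of extended constructs; streptavidin-bead capture; RT-PCR. Fitness, taken from Illumina sequencing of input and output libraries, is the logarithm of a genotype's enrichment over wild-type enrichment, averaged across replicates with inverse-variance weights. The logarithm is base 2, and genotypes needed ≥10 input reads and ≥1 read per output to be kept.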
As to G52U C72U A121C, the “polymerase ribozyme fitness (log ratio)” value was 0.242.

G52U U81C: the “polymerase ribozyme fitness (log ratio)” value is -1.74.

In the case of C53A C70A, the “polymerase ribozyme fitness (log ratio)” value is -1.81.

For the variant G52C C53U G71U, the “polymerase ribozyme fitness (log ratio)” value is -0.538.

With G52A G61A, the “polymerase ribozyme fitness (log ratio)” value is -0.531.

For G52A G60A C79A C115A U132A, the “polymerase ribozyme fitness (log ratio)” value was -0.536.

In the case of G51U G58C C86A C104U, the “polymerase ribozyme fitness (log ratio)” value was -3.76.

As for G52A C79U G120U, the “polymerase ribozyme fitness (log ratio)” value was -0.265.

Take G52A C73G: the “polymerase ribozyme fitness (log ratio)” value was -2.63.

With G52A C73A, the “polymerase ribozyme fitness (log ratio)” value is -0.179.

With C53A C56A G69U G127U, the “polymerase ribozyme fitness (log ratio)” value was -1.27.

G51U G61U C80A G127U: the “polymerase ribozyme fitness (log ratio)” value was -1.14.

As to C53A G128A, the “polymerase ribozyme fitness (log ratio)” value was -1.61.

For G51U C104A U133G, the “polymerase ribozyme fitness (log ratio)” value was -5.02.

Consider C53A C64U C99U U133G, for which the “polymerase ribozyme fitness (log ratio)” value is -4.1.

As for G52U U55C C79U, the “polymerase ribozyme fitness (log ratio)” value was -0.237.

For the variant G52U C72A C85A U106A G110U, the “polymerase ribozyme fitness (log ratio)” value was -3.08.

As for G52U C53U C56U G93U U109G, the “polymerase ribozyme fitness (log ratio)” value is -6.55.

On to G52A G57A, for which the “polymerase ribozyme fitness (log ratio)” value is -1.07.

For the variant G52C C70U C72U G117U, the “polymerase ribozyme fitness (log ratio)” value was -4.23.

With G52U C72A C104U A111G G113A, the “polymerase ribozyme fitness (log ratio)” value was -2.25.

On to G52U C79G A83G A121G U132A, for which the “polymerase ribozyme fitness (log ratio)” value was found to be 0.919.

On to G51C G135U, for which the “polymerase ribozyme fitness (log ratio)” value is -4.93.

In the case of G52C G60A U81A A83U, the “polymerase ribozyme fitness (log ratio)” value was -5.15.

As to C53A C88G C104A U129A, the “polymerase ribozyme fitness (log ratio)” value is -3.51.

As for G51U G71A, the “polymerase ribozyme fitness (log ratio)” value was -5.06.

For C53A G63U C82A A83C U96C, the “polymerase ribozyme fitness (log ratio)” value was -3.55.

On to G52C C94A, for which the “polymerase ribozyme fitness (log ratio)” value is -0.653.

As for G51U C123U, the “polymerase ribozyme fitness (log ratio)” value is -2.12.

On to G52U U106C A118G, for which the “polymerase ribozyme fitness (log ratio)” value is -0.754.

Turning to C53A G61U C72U U87C G127A, the “polymerase ribozyme fitness (log ratio)” value was -1.15.

On to G52U U106C, for which the “polymerase ribozyme fitness (log ratio)” value is -1.2.

Regarding G51U C73A U106A C124A U126A U129A U131A, the “polymerase ribozyme fitness (log ratio)” value is -2.8.

For G52U U55G C82A C89G, the “polymerase ribozyme fitness (log ratio)” value was -3.64.

Take C53A A111C: the “polymerase ribozyme fitness (log ratio)” value came out at 0.297.

Regarding G52C G61A C72U, the “polymerase ribozyme fitness (log ratio)” value was -0.0205.

As for C53A C94A U112C, the “polymerase ribozyme fitness (log ratio)” value was found to be 1.14.

Regarding G52U C73U A83U G120A C124U, the “polymerase ribozyme fitness (log ratio)” value was -0.229.

As for C53A G60U U106A U109G G113U, the “polymerase ribozyme fitness (log ratio)” value was -5.78.

In the case of G52A G57A G113A, the “polymerase ribozyme fitness (log ratio)” value was -0.88.

Consider G52A G58U C73G, for which the “polymerase ribozyme fitness (log ratio)” value is -0.432.

On to C53A C115U, for which the “polymerase ribozyme fitness (log ratio)” value was -0.961.

Turning to G51U U112A U133C, the “polymerase ribozyme fitness (log ratio)” value is -3.27.

Turning to G52A A68G G93A, the “polymerase ribozyme fitness (log ratio)” value is -5.07.

Regarding G51C G52A U81C, the “polymerase ribozyme fitness (log ratio)” value is -5.02.

Take G52U C70G C72U: the “polymerase ribozyme fitness (log ratio)” value is -3.48.

Consider G51U C56G, for which the “polymerase ribozyme fitness (log ratio)” value is -5.36.

Regarding G51U C56U, the “polymerase ribozyme fitness (log ratio)” value is -2.11.

Consider C53A U78G C80U C123G, for which the “polymerase ribozyme fitness (log ratio)” value stood at 0.434.

As for G52C C101A, the “polymerase ribozyme fitness (log ratio)” value was -2.34.

On to G51C G71A C82G C85A, for which the “polymerase ribozyme fitness (log ratio)” value is -4.52.

Regarding G52U G63C, the “polymerase ribozyme fitness (log ratio)” value is -0.581.

As for G52U G63A, the “polymerase ribozyme fitness (log ratio)” value was -1.95.

Regarding G52C U54G G69A U87C A100U, the “polymerase ribozyme fitness (log ratio)” value is -6.57.

As to G51U U130A, the “polymerase ribozyme fitness (log ratio)” value is -3.79.

With G52C U54G U87C A100U, the “polymerase ribozyme fitness (log ratio)” value was -1.94.

As for G51C C99U, the “polymerase ribozyme fitness (log ratio)” value is -7.54.

In the case of G51U A74C A121C, the “polymerase ribozyme fitness (log ratio)” value is -0.422.

For G52U G61U A118G U129A, the “polymerase ribozyme fitness (log ratio)” value is -1.85.

Consider G52A C73G C85A, for which the “polymerase ribozyme fitness (log ratio)” value is -1.93.

With G52U A84C G93C, the “polymerase ribozyme fitness (log ratio)” value was -2.23.

For the variant G52A C53U, the “polymerase ribozyme fitness (log ratio)” value was -0.621.

In the case of G52A C53A, the “polymerase ribozyme fitness (log ratio)” value is -0.436.

Take G52A A74U C80U: the “polymerase ribozyme fitness (log ratio)” value was -1.78.

As for G52U C53U, the “polymerase ribozyme fitness (log ratio)” value is -1.04.

Take G51C G61U: the “polymerase ribozyme fitness (log ratio)” value is -5.29.

Take G52U U92A C104U: the “polymerase ribozyme fitness (log ratio)” value was -4.43.

G52C A100C C114A: the “polymerase ribozyme fitness (log ratio)” value was -4.06.

Regarding C53A G63A C115U, the “polymerase ribozyme fitness (log ratio)” value is -3.96.

G51U G60A C123U: the “polymerase ribozyme fitness (log ratio)” value was -1.47.

As to G52C C53A C97U C101U, the “polymerase ribozyme fitness (log ratio)” value is -1.86.

On to G51C C101U, for which the “polymerase ribozyme fitness (log ratio)” value was -3.94.

For the variant G52C C88A, the “polymerase ribozyme fitness (log ratio)” value is -0.833.

In the case of G52A C64G C88G G120U, the “polymerase ribozyme fitness (log ratio)” value is -6.36.

For the variant C53A C73A U116A, the “polymerase ribozyme fitness (log ratio)” value is -3.87.

Consider G51U A68C A91C G110C, for which the “polymerase ribozyme fitness (log ratio)” value was -7.47.

Consider G51U C124U, for which the “polymerase ribozyme fitness (log ratio)” value was -2.88.

On to G51U C124G, for which the “polymerase ribozyme fitness (log ratio)” value was -1.68.

As for G52U U92C C114G, the “polymerase ribozyme fitness (log ratio)” value is -5.11.

As for G52U C56U A84U, the “polymerase ribozyme fitness (log ratio)” value is -1.37.

In the case of G52U C64U U132A, the “polymerase ribozyme fitness (log ratio)” value was -1.1.

For C53A G57U G93C C97U, the “polymerase ribozyme fitness (log ratio)” value was -0.989.

On to C53A G60A C85G, for which the “polymerase ribozyme fitness (log ratio)” value is -1.1.

For the variant G52C C56A G57A C89U A91C C94U, the “polymerase ribozyme fitness (log ratio)” value was -3.35.
